Measurements taken from patent US20100120063A1, “GPCR Arrestin Assays” (DISCOVERX CORPORATION, priority 2008, published 2010).

Key:
[1] = target: T1, OPRM1-PK (Homo sapiens, UniProt P35372); assay: Arrestin-EA EFC agonist assay, U2OS cells expressing OPRM1-PK only; format: cell-based; settings: U2OS OPRM1-PK only
T1 construct: PK (beta-galactosidase ED); expressed in transfected cells; host or cells: U2OS
Protocol: (§1) For all assays, 10,000 cells per well were seeded in 20 μL media and incubated overnight in 1% Fetal Bovine Serum and appropriate basal media (F-12 or DMEM). For agonist assays, 5 μL compound was added to cells and incubated at Room Temp. […] Arrestin-EA complex formation with the GPCR was detected with 50% (v/v) of PathHunter Detection Reagent (Dx 93-0001, PathHunter reagents are available from DiscoveRx, Corp., Fremont, Calif.) (Lysis buffer active ingredient 2% CHAPS, Emerald II and Galacton star are from Applied Biosystems.) Data was read on Packard Victor 2 or PerkinElmer ViewLux readers and analyzed using GraphPad Prism 4.

[2] = target: T2, OPRM1-PK and PROKR2 (Homo sapiens, UniProt Q8NFJ6); assay: Transactivation assay, U2OS cells co-expressing OPRM1-PK and PROKR2 (FIG. 14C); format: cell-based
T2 construct: expressed in transfected cells; host or cells: U2OS
T2 sequence (Q8NFJ6 whole entry, species assumed): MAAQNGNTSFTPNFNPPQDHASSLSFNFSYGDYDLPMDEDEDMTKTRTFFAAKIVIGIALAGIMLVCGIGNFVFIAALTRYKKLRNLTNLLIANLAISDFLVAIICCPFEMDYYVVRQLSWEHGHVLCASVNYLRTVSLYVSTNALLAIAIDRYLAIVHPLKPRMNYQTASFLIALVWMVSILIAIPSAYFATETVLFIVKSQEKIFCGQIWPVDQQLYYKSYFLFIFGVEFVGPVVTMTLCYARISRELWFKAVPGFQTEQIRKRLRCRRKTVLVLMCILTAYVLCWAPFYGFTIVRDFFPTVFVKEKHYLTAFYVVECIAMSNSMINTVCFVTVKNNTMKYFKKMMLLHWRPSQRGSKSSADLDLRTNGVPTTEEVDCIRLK
Protocol: as §1

T1 sequence (P35372 whole entry): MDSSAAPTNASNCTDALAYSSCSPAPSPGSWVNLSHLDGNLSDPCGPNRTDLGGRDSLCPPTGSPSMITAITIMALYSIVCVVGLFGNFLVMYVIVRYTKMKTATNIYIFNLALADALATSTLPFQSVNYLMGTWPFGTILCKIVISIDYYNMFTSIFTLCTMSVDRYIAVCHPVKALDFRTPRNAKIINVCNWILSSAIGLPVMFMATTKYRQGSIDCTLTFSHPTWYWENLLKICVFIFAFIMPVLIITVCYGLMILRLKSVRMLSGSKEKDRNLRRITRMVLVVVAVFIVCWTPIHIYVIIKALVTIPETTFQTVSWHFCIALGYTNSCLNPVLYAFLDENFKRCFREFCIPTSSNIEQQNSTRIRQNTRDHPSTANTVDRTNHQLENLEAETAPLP

B1: EG-VEGF: PROKR2 ligand, EG-VEGF/prokineticin (protein)
chain: AVITGACERDVQCGAGTCCAISLWLRGLRMCTPLGREGEECHPGSHKVPFFRKRKHHTCPCLPNLLCSRFPDGRYRCSMDLKNINF
Molecule B1 has an EC50 [1] of 32.1 nM, an HILLSLOPE [1] of 1.011 and a BOTTOM ([1]; curve fit, signal) of 25.82. The TOP ([1]; curve fit, signal) was 57.34, the LOGEC50 ([1]; log of EC50, negative sign as printed) was −7.493 and the EC50 ([2]; FIG. 14C) was 52.2 nM. For the same molecule, the HILLSLOPE ([2]; FIG. 14C) was 1.328, the “transactivation response” value ([2]; OPRM1-PK and PROKR2 coexpressed) was “weak response” and the BOTTOM ([2]; curve fit, signal, FIG. 14C) was 294.3. The TOP ([2]; curve fit, signal, FIG. 14C) was 9875 and the LOGEC50 ([2]; log of EC50, negative sign as printed, FIG. 14C) was −7.282.
